Laboratory results taken from patent US20170145069A1 (Novo Nordisk, published 2017).
*1 amine or outer side, *2 acyl side, *3 side chain or, on linkers, in order; H or OH if unused. Where no end group is shown, it is not given here. Side-chain parts run from the residue outwards. [ ]: non-standard residue; d: D form. The star is where a group is joined. Dodecanoyl(12-OPh(4-COOH)) = O=C(O)c1ccc(OCCCCCCCCCCCC(=O)*)cc1; Undecanoyl(11-OPh(4-COOH)) = O=C(O)c1ccc(OCCCCCCCCCCC(=O)*)cc1; Decanoyl(10-(4-HOOC-PhO)) = O=C(O)c1ccc(OCCCCCCCCCC(=O)*)cc1; γGlu = O=C(O)[C@H](CCC(=O)[*:2])N[*:1]; εLys = N[C@@H](CCCCN[*:1])C(=O)[*:2]; AEEA = NCCOCCOCC(=O)O; Aib = CC(C)(N)C(=O)O

Tests used:
human GLP-1 receptor [1] = biological target: T1, human GLP-1 receptor (human, UniProt P43220 24-463); experiment: cell-based or functional assay
human GLP-1 receptor [2] = biological target: T1, human GLP-1 receptor; experiment: SPA, displacement of 125I-GLP-1(7-36)NH2, BHK membranes, 0.001% HSA
Description: Test compounds, membranes, SPA-particles and [¹²⁵I] ]-GLP-1(7-36)NH₂ were diluted in assay buffer. 50 ul (micro liter) buffer (“low albumin” experiment containing 0.001% HSA) was added to Optiplate, and 25 ul of test compounds were added. 5-10 μg membrane protein/sample was added (50 μl) corresponding to 0.1-0.2 mg protein/ml (to be preferably optimised for each membrane preparation). SPA-particles (Wheatgerm agglutinin SPA beads, Perkin Elmer, #RPNQ0001) were added in an amount of 0.5 mg/well (50 μl). The incubation was started with [¹²⁵I]-GLP-1]-(7-36)NH₂ (final concentration 0.06 nM corresponding to 49.880 DPM, 25 μl). The plates were sealed with PlateSealer and incubated for 120 minutes at 30° C. while shaking. The plates were centrifuged (1500 rpm, 10 min) and counted in Topcounter.
The IC₅₀ value was read from the curve as the concentration which displaces 50% of ¹²⁵I-GLP-1 from the receptor.

human GLP-1 receptor [3] = biological target: T1, human GLP-1 receptor; experiment: cell-based or functional assay; remark: listed apart in the source

Binder	In vitro potency (CRE-luciferase) low albumin EC50 (human GLP-1 receptor [1]) [pM]	IC50 (human GLP-1 receptor [2]) [nM]	In vitro potency (AlphaScreen cAMP; membranes) EC50 (human GLP-1 receptor [3]) [pM]
HAEGTFTSDVSSYLEGQAAK([Gly-Ser-Ser-Gly-Ser-Ser-γGlu-Decanoyl(10-(4-HOOC-PhO))])EFIAWLVRGRK([Gly-Ser-Ser-Gly-Ser-Ser-γGlu-Decanoyl(10-(4-HOOC-PhO))])E	8	0.58	48
H[Aib]EGTFTSDVSK([Ala-Ser-Ser-Ala-Ser-Ser-γGlu-Undecanoyl(11-OPh(4-COOH))])YLEGQAAK([Ala-Ser-Ser-Ala-Ser-Ser-γGlu-Undecanoyl(11-OPh(4-COOH))])EFIAWLVQGRG	15	0.5	183
HAEGTFTSDVSK([AEEA-AEEA-γGlu-Decanoyl(10-(4-HOOC-PhO))])YLEEQAAK([AEEA-AEEA-γGlu-Decanoyl(10-(4-HOOC-PhO))])EFIAWLVQGRG [Comparative compound of Example 5a: Compound of Example 38, Chem. 57, in WO 2012/062803]	25	5.8	224
H[Aib]EGTFTSDVSK([Gly-Ser-Ser-Gly-Ser-Ser-γGlu-Dodecanoyl(12-OPh(4-COOH))])YLEGQAAK([Gly-Ser-Ser-Gly-Ser-Ser-γGlu-Dodecanoyl(12-OPh(4-COOH))])EFIAWLVQGRG	9.6	0.84	314
H[Aib]EGTFTSDVSK([εLys-Gly-Ser-Ser-Gly-Ser-Ser-Gly-Ser-Ser-Gly-Ser-Ser-Gly-Ser-Ser-Gly-Ser-Ser-γGlu-Undecanoyl(11-OPh(4-COOH))])YLEGQAAK([εLys-Gly-Ser-Ser-Gly-Ser-Ser-Gly-Ser-Ser-Gly-Ser-Ser-Gly-Ser-Ser-Gly-Ser-Ser-γGlu-Undecanoyl(11-OPh(4-COOH))])EFIAWLVQGRG	47	4.87	486
HXEGTFTSDVSSYLEGQAAKEFIAWLVRGRK (not fully specified; Aib at 8; eps-amino of Lys26 and Lys37 each acylated with 10-(4-carboxyphenoxy)decanoyl via the gGlu-2xOEG linker (as Example 1, only the linker differs)) [Comparative compound of Example 1a: Compound of Example 2, Chem. 21, in WO 2011/080103]		2.27	
XXEGTFTSDVSSYLEGQAAKEFIAWLVRGRK (Imp (imidazopropionyl, des-amino histidine) at 7; Aib at 8; eps-amino of Lys26 and Lys37 each acylated with 12-(4-carboxyphenoxy)dodecanoyl-gGlu-Ser-Ser-Gly-Ser-Ser-Gly)	5.8	0.53	446
XXEGTFTSDVSSYLEGQAAKEFIAWLVRGRK (Imp (imidazopropionyl, des-amino histidine) at 7; Aib at 8; eps-amino of Lys26 and Lys37 each acylated with 12-(4-carboxyphenoxy)dodecanoyl-gGlu-Ser-Gly-Ser-eps-Lys)	9.4	0.18	
HXEGTFTSDVSSYLEGQAAKEFIAWLVRGRK (Aib at 8; eps-amino of Lys26 and Lys37 each acylated with 12-(4-carboxyphenoxy)dodecanoyl-gGlu-Ser-Ser-Gly-Ser-Ser-Gly-eps-Lys)		0.27	252
H[Aib]EGTFTSDVSK([AEEA-AEEA-γGlu-Decanoyl(10-(4-HOOC-PhO))])YLEEQAAK([AEEA-AEEA-γGlu-Decanoyl(10-(4-HOOC-PhO))])EFIAWLVQGRG [Comparative compound of Example 7a: Compound of Example 2, Chem. 21, in WO 2012/062803]	17	7.03	395
HXEGTFTSDVSSYLEGQAAKEFIAWLVRGRK (Aib at 8; eps-amino of Lys26 and Lys37 each acylated with 11-(4-carboxyphenoxy)undecanoyl-gGlu-Ser-Ser-Gly-Ser-Ser-Gly)	2.8	0.17	27
HXEGTFTSDVSSYLEGQAAKEFIAHLVQGRK (Aib at 8; eps-amino of Lys26 and Lys37 each acylated with 10-(4-carboxyphenoxy)decanoyl via the gGlu-2xOEG linker (as Example 2, only the linker differs)) [Comparative compound of Example 2a: Compound of Example 17, Chem. 36, in WO 2011/080103]	132	44.5	582
HXEGTFTSDVSSYLEGQAAKEFIAWLVRGRK (Aib at 8; eps-amino of Lys26 and Lys37 each acylated with 12-(4-carboxyphenoxy)dodecanoyl-gGlu-Ser-Ser-Gly-Ser-Ser-Gly)	5.2	0.19	166
